Results: the supplement of paper PMC12764529
± gives the half width of the 95% confidence interval.

Experiments:
[1] = folding stability dG unfold from trypsin proteolysis; higher = more stable
How it was run: (§1)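 K50 was inferred by Bayesian fitting of sequencing counts obtained after protease digestion of designed mini-proteins. Unfolding free energy was derived by comparison with a sequence-predicted unfolded-state K50 and a shared folded-state K50, for each protease or both combined. The mini-proteins were under 80 residues, had no cysteine, were carried in a PA-tagged cDNA display construct, and were kept only if AlphaFold2 dimer inter-PAE exceeded 15.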

[2] = folding stability dG unfold from chymotrypsin proteolysis; higher = more stable
How it was run: as §1

[3] = folding stability dG unfold (combined trypsin and chymotrypsin); higher = more stable
How it was run: as §1

| Sequence | folding stability dG unfold [1] [kJ/mol] | folding stability dG unfold [2] [kJ/mol] | folding stability dG unfold [3] [kJ/mol] |
| --- | --- | --- | --- |
| SAGGSAGGSAGKTIKILLVVKDPETNEYYFLVMEIHLDENGNLHMKIKVFPTKEDAEKALSAGGSAGGSAGG [r11_792_TrROS_Hall] | 15.3 ± 0.795 | 17.4 ± 0.356 | 17 ± 0.628 |
| SAGGSAGGSAGKTLVFKTKEEALKAIEEEAKKKGYKKVKIEITEVGPDGKVKVKVKIEKKSAGGSAGGSAGG [r17_430_TrROS_Hall] | 3.19 ± 0.197 | 5.61 ± 0.753 | 5.43 ± 0.795 |
| SAGGSAGGSAGKTVVIEIKGMSKEQVLNLIKELAEKYPNSKIIITNENGEKIEINVKDLKSAGGSAGGSAGG [r11_541_TrROS_Hall] | 8.16 ± 0.544 | 14 ± 0.502 | 11.9 ± 0.92 |
| SAGGSAGGSAGKTYTLTITTENGKTITLPKDVEVVYDEKTGYLYIKNKKTNKVIKVKLKDSAGGSAGGSAGG [r17_432_TrROS_Hall] | 8.89 ± 0.213 | 9.24 ± 0.247 | 9.16 ± 0.331 |
| SAGGSAGGSAGKVELIETEDKLYLVVEVDGKKEVIEVSKEELEELLAALPPDAKVTILKPSAGGSAGGSAGG [r11_374_TrROS_Hall] | 13.2 ± 0.879 | 10.4 ± 0.502 | 11.6 ± 0.669 |
| SAGGSAGGSAGKVIIIKVPKKDMTPEEVEKLAKELKEKFPDAKITVIEVKKDGYIIIKIDSAGGSAGGSAGG [r11_365_TrROS_Hall] | 8.01 ± 0.264 | 11.4 ± 0.331 | 10.3 ± 0.46 |
| SAGGSAGGSAGKWIMFDSPEDIEEKLKENGYRIKNIEPQKMGGGPHVYVPIEIKPPPEDKSAGGSAGGSAGG [r11_141_TrROS] | -2.12 ± 2.26 | 1.8 ± 1.63 | 0.648 ± 1.59 |
| SAGGSAGGSAGKYYIIKYPGKVEIIPESEVEKIIEANPNVEIEEFESKEEALKALEKALSSAGGSAGGSAGG [r11_60_TrMRF] | 16.5 ± 0.879 | 17.7 ± 0.347 | 17.7 ± 0.377 |
| SAGGSAGGSAGLEALKKALEALPPGEERELEIEVEVDGKLYRFRIRVEKTEDGEYKATIELESAGGSAGGSA [r18_493_TrROS_Hall] | 19.1 ± 1.42 | 20.4 ± 0.351 | 19.9 ± 0.669 |
| SAGGSAGGSAGLEVPPGVPVKIPVVYVDKENDYVIVTELTITPDSGEIFYDPKIIPKKELSAGGSAGGSAGG [r11_468_TrMRF] | 1.05 ± 0.264 | 3.07 ± 0.293 | 2.72 ± 0.414 |
| SAGGSAGGSAGLFIPETGLLVVYDPAPGTLHVFRITGGDGLEIEPVGEVEVDPDNPELGTAFSAGGSAGGSA [r18_448_TrMRF] | -1.19 ± 1.21 | 1.94 ± 0.669 | 1.37 ± 0.753 |
| SAGGSAGGSAGLKPEVEALVRVVLKLPEGERVVLVKVKTLEELFELDLPEVVSIEIRPLKSAGGSAGGSAGG [r17_290_TrMRF] | 5.36 ± 0.117 | 7.24 ± 0.205 | 6.7 ± 0.268 |
| SAGGSAGGSAGLTFTLPDGTKITIETLEDGSVKIKIETLTPDGKPLEAEFVIPGSHPDEDSAGGSAGGSAGG [r17_471_TrMRF] | 13.4 ± 0.628 | 15.7 ± 0.586 | 15 ± 0.544 |
| SAGGSAGGSAGLTLRVKVKVELEYDPETNELTLRVEVEIELFPPPPLVVLSKEQLEELEESAGGSAGGSAGG [r17_454_TrROS_Hall] | 11.2 ± 0.753 | 15.3 ± 1 | 13.4 ± 1.63 |
| SAGGSAGGSAGMAEKLPSLSLFYLPETGDLVLIREETYVDPNDPDKSIVKQEIYVLPPEYSAGGSAGGSAGG [r17_241_TrMRF] | 4.12 ± 0.213 | 7.28 ± 0.544 | 6.32 ± 0.402 |
| SAGGSAGGSAGMDKDGKWRRIPFMFVNPGDGYIFKWEIWIYPGGNIELEMEIIGPIKPGASAGGSAGGSAGG [r11_226_TrROS] | 13.1 ± 0.544 | 20.1 ± 0.255 | 17.9 ± 0.46 |
| SAGGSAGGSAGMEIEEEDGKLRLRLEAEFEVTVTTRNADGSTTETTARVRVELTFELPEESAGGSAGGSAGG [r17_103_TrROS_Hall] | 15.4 ± 1.21 | 16.3 ± 0.502 | 16.3 ± 0.92 |
| SAGGSAGGSAGMEIEEKGDYLVIRIKVKEGETIELPEGWEVVDVEYDPETEEVTIVIRRKSAGGSAGGSAGG [r11_942_TrROS_Hall] | 18.3 ± 0.753 | 12.1 ± 0.418 | 16.3 ± 1.17 |
| SAGGSAGGSAGMETTDSVITYPDGSVVTVTTLPDGTTRVTTFYPESGLTEEEIVPAAELGSAGGSAGGSAGG [r11_1015_JUSTAS] | 7.51 ± 0.36 | 10.7 ± 0.418 | 9.15 ± 0.36 |
| SAGGSAGGSAGMEYHLVVVRPPNGEELVLLTDDDPELARRAARELFPGAEVRVEPVVLPESAGGSAGGSAGG [r11_850_TrMRF] | 0.463 ± 0.142 | 0.348 ± 0.289 | 0.414 ± 0.322 |
| SAGGSAGGSAGMKEGEIVEVTVPIPENGEEIKVKVVAPPSLTEEEARALAEEKAKEIYEKSAGGSAGGSAGG [r11_355_JUSTAS] | 0.273 ± 0.259 | 4.14 ± 0.167 | 2.49 ± 0.322 |
